Measurements from PMC6392501.

Legend:
[1] = biological target: C-terminal twin-Strep-tagged hTMEM266 (human) (UniProt Q2M3C6); assay: cross-linking; DSS (varying concentration) applied to intact HEK 293T cells expressing Strep-tagged hTMEM266; membrane fractions on SDS-PAGE; Western blot with anti-Strep antibody
[2] = biological target: C-terminal twin-Strep-tagged hTMEM266 (human) (UniProt Q2M3C6); assay: cross-linking; air oxidation (disulfide) of membrane fractions of HEK 293T cells expressing Strep-tagged hTMEM266; 10 mM NEM; SDS-PAGE with or without 2-ME; Western blot with anti-Strep antibody
[3] = biological target: C-terminal coiled-coil of hTMEM266 (residues 224–289) (human) (UniProt Q2M3C6); assay: non-reducing SDS-PAGE; purified coiled-coil run on SDS-PAGE with or without 2-ME; single species (monomer) with 2-ME, additional band at ~15 kDa without

Substance | stoichiometry N [1] | stoichiometry N [2] | stoichiometry N [3]
C-terminal twin-Strep-tagged hTMEM266 (from UniProt Q2M3C6 1-523) (natural protein) | 2 | 2 | 
C-terminal coiled-coil of hTMEM266 (residues 224–289) (from UniProt Q2M3C6 224-289) (domain or fragment) |  |  | 2
